The conditions of the data set: Rattus norvegicus; pH 7; 25 °C; Urea; Fluorescence; NaPO4 25 mM; NaCl 75 mM; whole UniProt chain shown.

Where “and” joins values, the source holds several entries; their conditions need not be identical. Equal entries are not always repeated.

B1: Fatty acid-binding protein, intestinal wild type, P02693 (protein)
chain: MAFDGTWKVDRNENYEKFMEKMGINVVKRKLGAHDNLKLTITQEGNKFTVKESSNFRNIDVVFELGVDFAYSLADGTELTGTWTMEGNKLVGKFKRVDNGKELIAVREISGNELIQTYTYEGVEAKRIFKKE
On to B1, for which the denaturant m value was 0.83 kcal/mol/M and 0.74 kcal/mol/M; the “denaturant midpoint (higher = more stable)” value was 4.61 M and 4.77 M; the unfolding free energy is 3.82 kcal/mol and 3.54 kcal/mol.

The values are drawn from FireProtDB (doi:10.1021/bi052091o).
